Patent US20130323281A1

Biological target: human TLR5 on HEK-Blue-hTLR5 cells (human) (UniProt O60602)
Experiment: cell-based or functional assay

Sequence of UniProt O60602 (O60602 21-858): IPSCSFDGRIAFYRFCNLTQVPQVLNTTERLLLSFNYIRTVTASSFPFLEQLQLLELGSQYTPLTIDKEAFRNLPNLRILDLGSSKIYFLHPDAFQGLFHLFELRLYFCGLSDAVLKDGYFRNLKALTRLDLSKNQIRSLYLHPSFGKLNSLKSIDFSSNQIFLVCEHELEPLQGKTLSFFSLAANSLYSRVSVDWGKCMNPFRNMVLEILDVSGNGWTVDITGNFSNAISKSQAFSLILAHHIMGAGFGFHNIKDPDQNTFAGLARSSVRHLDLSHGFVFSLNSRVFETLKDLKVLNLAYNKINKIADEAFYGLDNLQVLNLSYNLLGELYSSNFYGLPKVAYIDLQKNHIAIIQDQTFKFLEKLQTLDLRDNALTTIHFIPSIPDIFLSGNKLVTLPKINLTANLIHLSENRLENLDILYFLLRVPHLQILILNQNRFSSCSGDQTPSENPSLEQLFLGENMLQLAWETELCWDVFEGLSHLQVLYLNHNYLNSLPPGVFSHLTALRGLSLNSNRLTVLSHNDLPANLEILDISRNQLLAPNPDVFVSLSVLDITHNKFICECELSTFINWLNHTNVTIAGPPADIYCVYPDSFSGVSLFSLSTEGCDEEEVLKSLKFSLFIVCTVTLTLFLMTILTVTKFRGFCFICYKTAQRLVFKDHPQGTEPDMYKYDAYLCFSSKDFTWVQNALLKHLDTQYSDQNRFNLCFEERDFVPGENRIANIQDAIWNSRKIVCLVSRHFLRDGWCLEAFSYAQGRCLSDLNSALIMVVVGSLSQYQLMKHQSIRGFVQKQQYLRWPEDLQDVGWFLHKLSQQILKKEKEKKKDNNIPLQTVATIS

## flagellin (G239HPG, M310I, M466I) conjugated to Hepatitis B core (HBc) VLP by azide-alkyne click reaction
  flagellin bioactivity (SEAP reporter, HEK-Blue-hTLR5 cells), fold against free flagellin: 10 fold

## flagellin (fliC gene product) from Salmonella typhimurium SL1344, wild-type, produced by cell-free protein synthesis (from UniProt P06179 2-495) (ligand)
  EC50 in flagellin bioactivity assay (SEAP reporter, HEK-Blue-hTLR5 cells): 2.4 pM
  bioactivity assay (SEAP reporter, HEK-Blue-hTLR5 cells), given as 'affinity': 6 pM

## flagellin Mutation III (M1HPG, Ala2Ile, M310I, M466I) conjugated to Hepatitis B core (HBc) VLP
  bioactivity assay (SEAP reporter, HEK-Blue-hTLR5 cells), fold against free flagellin: 5 fold
